According to IntAct's records for PubMed 22660580:

B1: Interleukin-1 receptor-like 1 (Mus musculus), P14719 (parent)
chain: MIDRQRMGLWALAILTLPMYLTVTEGSKSSWGLENEALIVRCPQRGRSTYPVEWYYSDTNESIPTQKRNRIFVSRDRLKFLPARVEDSGIYACVIRSPNLNKTGYLNVTIHKKPPSCNIPDYLMYSTVRGSDKNFKITCPTIDLYNWTAPVQWFKNCKALQEPRFRAHRSYLFIDNVTHDDEGDYTCQFTHAENGTNYIVTATRSFTVEEKGFSMFPVITNPPYNHTMEVEIGKPASIACSACFGKGSHFLADVLWQINKTVVGNFGEARIQEEEGRNESSSNDMDCLTSVLRITGVTEKDLSLEYDCLALNLHGMIRHTIRLRRKQPIDHRSIYYIVAGCSLLLMFINVLVIVLKVFWIEVALFWRDIVTPYKTRNDGKLYDAYIIYPRVFRGSAAGTHSVEYFVHHTLPDVLENKCGYKLCIYGRDLLPGQDAATVVESSIQNSRRQVFVLAPHMMHSKEFAYEQEIALHSALIQNNSKVILIEMEPLGEASRLQVGDLQDSLQHLVKIQGTIKWREDHVADKQSLSSKFWKHVRYQMPVPERASKTASVAAPLSGKACLDLKHF
partner: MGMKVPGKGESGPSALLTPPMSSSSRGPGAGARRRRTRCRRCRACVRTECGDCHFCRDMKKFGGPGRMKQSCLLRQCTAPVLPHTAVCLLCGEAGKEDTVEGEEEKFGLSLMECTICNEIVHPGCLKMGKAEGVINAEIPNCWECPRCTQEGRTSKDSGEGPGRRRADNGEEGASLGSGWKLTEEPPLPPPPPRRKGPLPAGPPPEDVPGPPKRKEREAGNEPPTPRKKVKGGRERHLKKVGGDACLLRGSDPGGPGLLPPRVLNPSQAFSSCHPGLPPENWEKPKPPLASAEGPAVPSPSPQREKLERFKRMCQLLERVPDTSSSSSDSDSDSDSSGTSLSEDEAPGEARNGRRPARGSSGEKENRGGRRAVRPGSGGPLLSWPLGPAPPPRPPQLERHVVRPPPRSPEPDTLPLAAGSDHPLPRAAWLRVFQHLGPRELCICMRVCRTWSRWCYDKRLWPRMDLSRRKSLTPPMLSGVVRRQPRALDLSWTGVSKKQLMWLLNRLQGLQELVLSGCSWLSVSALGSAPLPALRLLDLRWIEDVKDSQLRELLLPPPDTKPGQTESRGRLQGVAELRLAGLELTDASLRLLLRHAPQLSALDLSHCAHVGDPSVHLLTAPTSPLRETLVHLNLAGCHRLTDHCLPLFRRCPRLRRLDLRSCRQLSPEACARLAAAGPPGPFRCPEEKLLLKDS

Variants of: B1
Settings: with fxl19_human FBXL19, Q6PCT2

Row | effect of a mutation on the interaction | Variant
1 | decreasing interaction | S442A
